Laboratory results published in paper PMC10574006, “Two Different Isocitrate Dehydrogenases from Pseudomonas aeruginosa: Enzymology and Coenzyme-Evolutionary Implications” (International Journal of Molecular Sciences, 2023).

T1: PaIDH1 (Pseudomonas aeruginosa, UniProt Q9I0L5)
T1 construct: gene icd; full length, 418 aa, 6xHis-tag, pET-28b(+) NdeI/XhoI, E. coli Rosetta (DE3), 45 kDa subunit, homodimer
T1 sequence (Q9I0L5 1-418): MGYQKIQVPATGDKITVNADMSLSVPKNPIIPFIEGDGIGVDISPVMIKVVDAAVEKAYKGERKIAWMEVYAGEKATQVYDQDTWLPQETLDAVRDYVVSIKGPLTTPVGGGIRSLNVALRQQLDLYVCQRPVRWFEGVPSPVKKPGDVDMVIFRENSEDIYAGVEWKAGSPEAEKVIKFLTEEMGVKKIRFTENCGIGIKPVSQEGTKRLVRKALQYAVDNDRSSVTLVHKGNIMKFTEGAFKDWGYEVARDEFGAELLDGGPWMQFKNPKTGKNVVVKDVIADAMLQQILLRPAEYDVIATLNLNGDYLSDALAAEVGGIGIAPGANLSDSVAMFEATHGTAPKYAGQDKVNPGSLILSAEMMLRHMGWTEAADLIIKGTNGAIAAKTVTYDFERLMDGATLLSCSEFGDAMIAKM

T2: PaIDH2 (Pseudomonas aeruginosa, UniProt Q9I0L4)
T2 construct: gene idh; full length, 741 aa, 6xHis-tag, pET-28b(+) NdeI/XhoI, E. coli Rosetta (DE3), 81 kDa subunit, oligomer depends on salt (176-320 kDa)
T2 sequence (Q9I0L4 1-741): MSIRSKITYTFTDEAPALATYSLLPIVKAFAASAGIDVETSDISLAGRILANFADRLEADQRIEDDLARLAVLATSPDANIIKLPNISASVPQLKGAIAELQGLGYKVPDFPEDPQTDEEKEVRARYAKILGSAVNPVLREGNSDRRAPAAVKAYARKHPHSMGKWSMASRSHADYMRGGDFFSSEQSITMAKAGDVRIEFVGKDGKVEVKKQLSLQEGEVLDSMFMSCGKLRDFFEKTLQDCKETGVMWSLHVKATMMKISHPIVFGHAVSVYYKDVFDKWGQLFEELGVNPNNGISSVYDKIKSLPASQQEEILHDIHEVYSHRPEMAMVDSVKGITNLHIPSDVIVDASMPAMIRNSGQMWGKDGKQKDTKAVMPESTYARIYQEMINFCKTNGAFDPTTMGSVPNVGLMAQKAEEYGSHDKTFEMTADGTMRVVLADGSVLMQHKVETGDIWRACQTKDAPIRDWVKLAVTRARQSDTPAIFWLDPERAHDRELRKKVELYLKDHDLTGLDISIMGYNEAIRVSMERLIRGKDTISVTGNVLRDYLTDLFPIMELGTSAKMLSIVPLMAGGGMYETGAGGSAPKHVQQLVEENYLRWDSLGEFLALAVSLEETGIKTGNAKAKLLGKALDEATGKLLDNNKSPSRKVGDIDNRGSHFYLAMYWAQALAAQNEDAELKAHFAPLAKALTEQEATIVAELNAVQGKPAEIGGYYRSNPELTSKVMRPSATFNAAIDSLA

B1: PaIDH2 (Pseudomonas aeruginosa PAO1) (protein)
chain: T2 sequence (Q9I0L4 1-741)
notes: full length, 741 aa, 6xHis-tag, pET-28b(+) NdeI/XhoI, E. coli Rosetta (DE3), 81 kDa subunit, oligomer depends on salt (176-320 kDa)
B2: PaIDH1 (Pseudomonas aeruginosa PAO1) (protein)
chain: T1 sequence (Q9I0L5 1-418)
notes: full length, 418 aa, 6xHis-tag, pET-28b(+) NdeI/XhoI, E. coli Rosetta (DE3), 45 kDa subunit, homodimer

Legend:
[1] = target: T1, PaIDH1; test: effect on IDH activity, product formation; format: biochemical; details: read-out: Relative Activity (%) / PaIDH1
Text: effect on IDH activity, product formation on PaIDH1

[2] = target: T2, PaIDH2; test: effect on IDH activity, product formation; format: biochemical; details: read-out: Relative Activity (%) / PaIDH2
Text: effect on IDH activity, product formation on PaIDH2

[3] = substrate: O=C(O)CC(C(=O)O)C(O)C(=O)O; test: purified protein; format: biochemical, Pseudomonas aeruginosa; details: 500 μM NADP+, 2 mM MnCl2, 50 mM Tris-HCl pH 7.5, 25 °C
[4] = substrate: NC(=O)c1ccc[n+]([C@@H]2O[C@H](COP(=O)(O)OP(=O)(O)OC[C@H]3O[C@@H](n4cnc5c(N)ncnc54)[C@H](OP(=O)(O)O)[C@@H]3O)[C@@H](O)[C@H]2O)c1; test: purified protein; format: biochemical, Pseudomonas aeruginosa; details: 1 mM DL-isocitrate, 2 mM MnCl2, 50 mM Tris-HCl pH 7.5, 25 °C, varied: cofactor

Molecule | activity at 2000 µM [1] [%] | activity at 2000 µM [2] [%] | Km [3] [µM] | kcat [3] [s⁻¹] | kcat/Km [3] [M⁻¹ s⁻¹] | Km [4] [µM] | kcat [4] [s⁻¹] | kcat/Km [4] [M⁻¹ s⁻¹]
O=C(O)CC(=O)C(=O)O [OAA] | 77.5 ± 4.56 |  |  |  |  |  |  | 
Nc1ncnc2c1ncn2[C@@H]1O[C@H](COP(=O)(O)OP(=O)(O)O)[C@@H](O)[C@H]1O [ADP] | 81.8 ± 3.55 | 82.7 ± 3.37 |  |  |  |  |  | 
Nc1ncnc2c1ncn2[C@@H]1O[C@H](COP(=O)(O)OP(=O)(O)OP(=O)(O)O)[C@@H](O)[C@H]1O [ATP] |  | 75.9 ± 5.92 |  |  |  |  |  | 
O=C(O)CCC(=O)C(=O)O [α-KG] | 79.5 ± 4.64 | 82.8 ± 5.65 |  |  |  |  |  | 
B1 |  |  | 23.61 ± 1.21 | 171 ± 6.77 | 7.26e+06 ± 130000 | 30.68 ± 2.73 | 134 ± 17 | 4.42e+06 ± 1.13e+06
B2 |  |  | 14.41 ± 1.82 | 29.3 ± 10.9 | 2.1e+06 ± 930000 | 20.00 ± 6.29 | 105 ± 19.9 | 5.42e+06 ± 970000
